Source: US20260022195A1

T1: human C1s (active form) (human) (UniProt P09871)
T1 sequence 1: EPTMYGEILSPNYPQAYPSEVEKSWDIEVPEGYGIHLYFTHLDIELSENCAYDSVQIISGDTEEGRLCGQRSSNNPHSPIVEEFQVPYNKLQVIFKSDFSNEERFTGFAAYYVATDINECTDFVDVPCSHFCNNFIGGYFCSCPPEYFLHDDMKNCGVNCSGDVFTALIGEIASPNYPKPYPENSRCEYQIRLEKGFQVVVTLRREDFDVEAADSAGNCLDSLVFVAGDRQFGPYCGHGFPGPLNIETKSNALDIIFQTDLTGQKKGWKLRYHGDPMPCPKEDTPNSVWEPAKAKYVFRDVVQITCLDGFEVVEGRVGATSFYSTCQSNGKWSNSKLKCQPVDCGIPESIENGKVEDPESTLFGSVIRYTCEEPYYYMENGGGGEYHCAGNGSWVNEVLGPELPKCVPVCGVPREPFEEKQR
T1 sequence 2: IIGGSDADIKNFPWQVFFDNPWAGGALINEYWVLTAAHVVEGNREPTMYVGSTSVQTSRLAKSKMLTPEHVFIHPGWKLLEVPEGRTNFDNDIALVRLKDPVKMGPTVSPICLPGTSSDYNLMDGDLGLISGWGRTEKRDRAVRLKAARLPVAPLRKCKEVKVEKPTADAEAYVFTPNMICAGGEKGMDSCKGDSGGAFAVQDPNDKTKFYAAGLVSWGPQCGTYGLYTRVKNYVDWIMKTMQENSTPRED


Target: T1, human C1s (active form) (human)
Test: cell-based or functional assay

Row | Binder | IC50 of inhibition of C3b deposition on antibody-sensitized human RBCs (flow cytometry, 5% human serum) [nM]
1 | TNT020 (antibody, from another filing, V domains shown) VH: QVQLVQSGAEVKKPGASVKLSCTASGFNIKDDYIHWVKQAPGQGLEWIGRIDPADGHTKYAPKFQVKVTITADTSTSTAYLELSSLRSEDTAVYYCARYGYGREVFDYWGQGTTVTVSS VL: DIVLTQSPDSLAVSLGERATISCKASQSVDYDGDSYMNWYQQKPGQPPKILIYDASNLESGIPARFSGSGSGTDFTLTISSLEPEDFAIYYCQQSNEDPWTFGGGTKVEIKR | 6.5
2 | TNT009 (antibody, from another filing, V domains shown) VH: EVQLVESGGGLVKPGGSLRLSCAASGFTFSNYAMSWVRQAPGKGLEWVATISSGGSHTYYLDSVKGRFTISRDNSKNTLYLQMNSLRAEDTALYYCARLFTGYAMDYWGQGTLVTVSS VL: QIVLTQSPATLSLSPGERATMSCTASSSVSSSYLHWYQQKPGKAPKLWIYSTSNLASGVPSRFSGSGSGTDYTLTISSLQPEDFATYYCHQYYRLPPITFGQGTKLEIKR | 5
